{"source": "paper PMC7535908", "about": "“Dipeptidyl peptidase 3 modulates the renin–angiotensin system in mice” (The Journal of Biological Chemistry, 2020)", "key": {"[1]": {"target": "T1, purified recombinant human DPP3 (hDPP3) (Homo sapiens, UniProt Q9NY33)", "T1 construct": "made in house", "T1 sequence (Q9NY33 1-737)": "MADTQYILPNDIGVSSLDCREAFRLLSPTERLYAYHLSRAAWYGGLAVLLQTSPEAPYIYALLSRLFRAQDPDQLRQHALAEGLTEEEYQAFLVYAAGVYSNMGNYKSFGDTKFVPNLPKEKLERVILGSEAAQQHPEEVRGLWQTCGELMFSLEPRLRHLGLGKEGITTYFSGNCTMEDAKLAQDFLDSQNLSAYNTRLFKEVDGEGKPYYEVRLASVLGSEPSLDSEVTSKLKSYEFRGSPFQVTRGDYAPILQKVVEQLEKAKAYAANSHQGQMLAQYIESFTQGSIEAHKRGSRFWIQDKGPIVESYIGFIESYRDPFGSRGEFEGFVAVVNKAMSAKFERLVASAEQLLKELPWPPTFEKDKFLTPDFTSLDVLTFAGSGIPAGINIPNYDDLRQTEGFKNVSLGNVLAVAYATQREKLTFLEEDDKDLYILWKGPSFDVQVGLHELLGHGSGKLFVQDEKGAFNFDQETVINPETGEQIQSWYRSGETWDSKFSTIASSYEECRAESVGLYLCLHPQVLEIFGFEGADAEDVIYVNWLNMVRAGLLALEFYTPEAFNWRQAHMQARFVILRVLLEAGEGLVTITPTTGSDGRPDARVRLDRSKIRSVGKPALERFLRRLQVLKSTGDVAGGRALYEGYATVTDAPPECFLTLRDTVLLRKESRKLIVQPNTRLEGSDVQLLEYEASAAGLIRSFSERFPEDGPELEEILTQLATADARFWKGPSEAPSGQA", "assay": "Single-injection ITC enzyme kinetics of angiotensin peptide hydrolysis by hDPP3", "format": "biochemical", "conditions": "for Substrate behaviour with DPP3 (heat signal, result in words): 5 µl of 2 mM peptide into 20 μM hDPP3, pH 8.0, 25 °C, no curve fitting possible for slow or poor substrates; for ΔH (enthalpy of interaction, heat of reaction) / kcat (maximum turnover number) / Km: 5 µl of 2 mM peptide into 200 µl of 20 μM hDPP3, 50 mM Tris-HCl pH 8.0, 100 mM NaCl, 25 °C, means ± S.D., three or more technical replicates from two biological replicates; for kcat (maximum turnover number) / Km: Michaelis–Menten fit, SD; for Km: read-out: Km (Michaelis–Menten constant)", "from_the_text": "Thus, we investigated the activity of DPP3 against different angiotensin peptides. Kinetic parameters of angiotensin peptides were obtained by single-injection calorimetry measurements that are based on the exothermal hydrolysis of peptide bonds by purified recombinant human DPP3, which shares 93% sequence identity with the mouse DPP3. […] The graphs show the rate of angiotensin conversion as a function of its concentration. The insets depict the raw data of heat change caused by the conversion of substrate peptides.\nFigure 9. […] The reaction was started by injecting 5 µl of 2 mM angiotensin peptides to the calorimetric cell containing 20 μM hDPP3. The data represent three or more technical replicates from two biological replicates.\nCalorimetric activity of six different angiotensin peptides as purported substrates of DPP3 were further assayed using a MicroCal PEAQ-ITC (Malvern Panalytical Ltd., Malvern, UK). […] For this, the single-injection method was used, in which 5 µl of 2 mM angiotensin peptide was titrated into 200 µl of 20 μM purified hDPP3. The purification of recombinant hDPP3 was done as described in Ref. [35]. Both the ligand and the purified protein were prepared in 50 mM Tris-HCl at pH 8.0 containing 100 mM NaCl. The experiments consisted of a single injection of the ligand continuously over a period of 10 s, including an initial delay of 180 s before the injection and a spacing of 300 s after the injection. The experiments were performed at 25 °C with a stirring speed of 500 rpm. The thermodynamic characterization of this binding interaction was obtained using MicroCal PEAQ-ITC analysis software."}, "[2]": {"target": "T2, purified recombinant human DPP3 (dipeptidyl peptidase 3) (human) (UniProt Q9NY33)", "T2 sequence": "T1 sequence (Q9NY33 1-737)"}}}
{"substance": "Ang IV: angiotensin peptide (3–8), commercially purchased (Bachem)", "values": [{"measurement": "Substrate behaviour with DPP3 (heat signal, result in words)", "setting": "[1]", "result": "both endothermic and exothermic behavior"}]}
{"substance": "angiotensin (1–7), Ang(1–7) (from UniProt P01019 25-31) (peptide)", "values": [{"measurement": "Km, single-injection ITC enzyme kinetics (hydrolysis of the peptide by hDPP3)", "setting": "[2]", "result": 1.95, "unit": "µM"}, {"measurement": "kcat, single-injection ITC enzyme kinetics (hydrolysis of the peptide by hDPP3)", "setting": "[2]", "result": 0.14, "unit": "s⁻¹"}, {"measurement": "ΔH (enthalpy of interaction, also called heat of reaction), single-injection ITC", "setting": "[2]", "result": -1.52, "unit": "kcal/mol"}]}
{"substance": "Ang(1–5): angiotensin peptide (1–5), commercially purchased (Bachem) (DRVYI)", "values": [{"measurement": "Substrate behaviour with DPP3 (heat signal, result in words)", "setting": "[1]", "result": "“good” substrates"}, {"measurement": "ΔH (enthalpy of interaction, heat of reaction)", "setting": "[1]", "result": "-1.84 ± -0.04", "unit": "kcal/mol"}, {"measurement": "kcat (maximum turnover number)", "setting": "[1]", "result": "0.35 ± 0.002", "unit": "s⁻¹"}, {"measurement": "Km", "setting": "[1]", "result": "12.5 ± 2.2", "unit": "µM"}]}
{"substance": "Ang(1–7): angiotensin peptide (1–7), commercially purchased (Bachem), main metabolite of the alternate RAS", "values": [{"measurement": "Substrate behaviour with DPP3 (heat signal, result in words)", "setting": "[1]", "result": "“good” substrates"}, {"measurement": "ΔH (enthalpy of interaction, heat of reaction)", "setting": "[1]", "result": "-1.52 ± -0.10", "unit": "kcal/mol"}, {"measurement": "kcat (maximum turnover number)", "setting": "[1]", "result": "0.14 ± 0.003", "unit": "s⁻¹"}, {"measurement": "Km", "setting": "[1]", "result": "1.95 ± 0.2", "unit": "µM"}]}
{"substance": "angiotensin (1–5), Ang(1–5) (from UniProt P01019 25-29) (peptide)", "values": [{"measurement": "Km, single-injection ITC enzyme kinetics (hydrolysis of the peptide by hDPP3)", "setting": "[2]", "result": 12.5, "unit": "µM"}, {"measurement": "kcat, single-injection ITC enzyme kinetics (hydrolysis of the peptide by hDPP3)", "setting": "[2]", "result": 0.35, "unit": "s⁻¹"}, {"measurement": "ΔH (enthalpy of interaction, also called heat of reaction), single-injection ITC", "setting": "[2]", "result": -1.84, "unit": "kcal/mol"}]}
{"substance": "tynorphin", "values": [{"measurement": "Substrate behaviour with DPP3 (heat signal, result in words)", "setting": "[1]", "result": "“slow” substrates"}]}
{"substance": "Ang I: angiotensin peptide (1–10), commercially purchased (Bachem), tested as purported substrate of DPP3 (DRVYIHPFHL)", "values": [{"measurement": "Substrate behaviour with DPP3 (heat signal, result in words)", "setting": "[1]", "result": "poor substrate"}]}
{"substance": "Ang III: angiotensin peptide (2–8), commercially purchased (Bachem)", "values": [{"measurement": "Substrate behaviour with DPP3 (heat signal, result in words)", "setting": "[1]", "result": "both endothermic and exothermic behavior"}]}
{"substance": "angiotensin II, Ang II (1–8) (from UniProt P01019 25-32) (peptide)", "values": [{"measurement": "Km, single-injection ITC enzyme kinetics (hydrolysis of the peptide by hDPP3)", "setting": "[2]", "result": 8.4, "unit": "µM"}, {"measurement": "kcat, single-injection ITC enzyme kinetics (hydrolysis of the peptide by hDPP3)", "setting": "[2]", "result": 0.25, "unit": "s⁻¹"}]}
